The values that follow come from article PMC11399441.

Data set [1] can be described thus: IP and anti-ubiquitin western blot. The following applies: glycan lost; control: untreated YTS-1 cells.
The nature of data set [2]: western blot, YTS-1 cells. To be noted: control: untreated YTS-1 cells.
The nature of another data set: CHX chase, western blot. The following applies: control: untreated YTS-1 cells.

With “C1GalT1 (core1 β-1,3-galactosyltransferase, T-synthase): OSMI-1”, the “other: ubiquitination” value in data set [1] was “increases”. For the same substance, the expression_or_secretion result in data set [2] (glycan lost) is given as “decreases”. Also, the degradation_or_half_life entry in the data set “CHX chase, western blot” (glycan lost) was “decreases”.

Turning to “C1GalT1 (core1 β-1,3-galactosyltransferase, T-synthase): PugNAc”, in data set [2] (glycan gained), the expression_or_secretion entry was “increases”. Also, the degradation_or_half_life result in the data set “CHX chase, western blot” (glycan gained) is on record as “increases”.
